# In the Immune Epitope Database (IEDB):
# Assays:
# HLA-A*68:02 = test: IEDB peptide-MHC binding, purified MHC/competitive/radioactivity; filed as Kd, often an IC50 or EC50 that approximates it; ≥ and ≤ were set here for values at or beyond the usual limits of such assays
# HLA-A*02:01 = test: as above; conditions: source organism: Homo sapiens
# HLA-B*57:01 = test: IEDB peptide-MHC binding, purified MHC/direct/fluorescence; filed as Kd, often an IC50 or EC50 that approximates it; ≥ and ≤ were set here for values at or beyond the usual limits of such assays; conditions: source organism: Orthohantavirus dobravaense
# HLA-B*58:01 = test: as above; conditions: source organism: Orthohantavirus dobravaense
# HLA-B*40:01 = test: IEDB peptide-MHC binding, purified MHC/competitive/radioactivity; filed as Kd, often an IC50 or EC50 that approximates it; ≥ and ≤ were set here for values at or beyond the usual limits of such assays; conditions: source organism: Dengue virus 4 Philippines/H241/1956
# HLA-B*44:02 = test: as above
# HLA-A*32:01 = test: as above
# HLA-A*01:01 = test: as above
# HLA-A*23:01 = test: as above; conditions: source organism: Mammarenavirus juninense
# HLA-A*24:02 = test: as above; conditions: source organism: Mammarenavirus juninense
# HLA-A*26:01 = test: as above; conditions: source organism: Mammarenavirus juninense
# HLA-A*29:02 = test: as above; conditions: source organism: Mammarenavirus juninense
# HLA-A*30:01 = test: as above; conditions: source organism: Mammarenavirus juninense
# HLA-A*30:02 = test: as above; conditions: source organism: Mammarenavirus juninense
# HLA-B*44:03 = test: as above
# HLA-A*02:06 = test: as above
# HLA-B*15:01 = test: IEDB peptide-MHC binding, purified MHC/competitive/fluorescence; filed as Kd, often an IC50 or EC50 that approximates it; ≥ and ≤ were set here for values at or beyond the usual limits of such assays; conditions: source organism: Human immunodeficiency virus 1
# HLA-A*02:02 = test: IEDB peptide-MHC binding, purified MHC/competitive/radioactivity; filed as Kd, often an IC50 or EC50 that approximates it; ≥ and ≤ were set here for values at or beyond the usual limits of such assays; conditions: source organism: Vaccinia virus WR
# HLA-A*02:03 = test: as above; conditions: source organism: Vaccinia virus WR
# [1] = source organism: Dengue virus 3 Martinique/1243/1999
# [2] = source organism: Vaccinia virus WR
# [3] = source organism: Mammarenavirus juninense
# [4] = source organism: Dengue virus 2 Jamaica/1409/1983
# [5] = source organism: Dengue virus 3 Singapore/8120/1995
# [6] = source organism: Dengue virus 1 Brazil/97-11/1997
sequence,measurement,setting,value
ITPRSPSVEV,Kd,HLA-A*68:02; source organism: Dengue virus 4 Philippines/H241/1956,575 nM
ITQLMPFGC,Kd,HLA-A*02:01,6290 nM
KALIATATW,Kd,HLA-B*57:01,25.3 nM
same,Kd,HLA-B*58:01,12.5 nM
KEKVVGRII,Kd,HLA-B*40:01,2860 nM
KEVSETQHG,Kd,HLA-B*44:02; [1],6770 nM
KINEVVEIF,Kd,HLA-A*32:01; [2],19.3 nM
KTPVESWEEI,Kd,HLA-A*32:01; source organism: Dengue virus 2 Peru/IQT2913/1996,1610 nM
LCLSGDGWPY,Kd,HLA-A*01:01; [3],1030 nM
same,Kd,HLA-A*23:01,≥ 70000 nM
same,Kd,HLA-A*24:02,≥ 70300 nM
same,Kd,HLA-A*26:01,≥ 69700 nM
same,Kd,HLA-A*29:02,148 nM
same,Kd,HLA-A*30:01,≥ 55600 nM
same,Kd,HLA-A*30:02,1460 nM
same,Kd,HLA-A*32:01; [3],16900 nM
LEPPFGDSYI,Kd,HLA-B*40:01,6420 nM
LERAADVKW,Kd,HLA-B*44:02; [4],130 nM
same,Kd,HLA-B*44:03; [4],214 nM
LFSGVSWVMK,Kd,HLA-A*32:01; [1],10100 nM
LTAAVLLLV,Kd,HLA-A*01:01; [5],16700 nM
same,Kd,HLA-A*02:06; [5],120 nM
same,Kd,HLA-A*68:02; [5],1.36 nM
LTAIANQAAI,Kd,HLA-A*01:01; [6],10200 nM
same,Kd,HLA-A*68:02; [6],22.9 nM
LVGKLNWASQIY,Kd,HLA-B*15:01,2210 nM
MAVGMVSILA,Kd,HLA-A*68:02; [4],3.29 nM
MEDKTHVSSW,Kd,HLA-B*44:02; [6],82.3 nM
same,Kd,HLA-B*44:03; [6],111 nM
MMLVPLITV,Kd,HLA-A*02:02,1020 nM
same,Kd,HLA-A*02:03,≥ 52100 nM
same,Kd,HLA-A*02:06; [2],≥ 77100 nM
same,Kd,HLA-A*68:02; [2],5160 nM
MSTYGWNLV,Kd,HLA-A*01:01; [4],8500 nM
same,Kd,HLA-A*68:02; [4],11.9 nM
MTMKMMVHI,Kd,HLA-A*32:01; [2],4.75 nM
NMALKKIREL,Kd,HLA-A*68:02; source organism: Homo sapiens,≥ 60000 nM
PLEGSEDRII,Kd,HLA-A*02:01,≥ 70300 nM
same,Kd,HLA-A*68:02; source organism: Homo sapiens,≥ 65200 nM
